Publication PMC4992421 (Nature immunology, 2016)

Tests used:
Assay in all cases: SPR
KIR3DS1-Fc = KIR3DS1-Fc (human, UniProt Q14943)
KIR3DL1-Fc = KIR3DL1-Fc (human, UniProt P43629)
KIR3DL2-Fc = KIR3DL2-Fc (human, UniProt P43630)
KIR3DL2-Fc, sequence (P43630 22-340): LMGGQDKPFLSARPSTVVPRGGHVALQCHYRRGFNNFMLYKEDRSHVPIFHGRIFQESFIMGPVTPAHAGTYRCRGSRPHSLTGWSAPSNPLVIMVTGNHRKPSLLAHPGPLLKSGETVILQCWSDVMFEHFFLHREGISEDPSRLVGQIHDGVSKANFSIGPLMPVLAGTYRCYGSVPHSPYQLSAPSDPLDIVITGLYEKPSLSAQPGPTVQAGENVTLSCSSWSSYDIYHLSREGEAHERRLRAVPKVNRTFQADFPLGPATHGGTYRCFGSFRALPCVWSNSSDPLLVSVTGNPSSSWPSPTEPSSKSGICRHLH

KIR3DL1-Fc, sequence (P43629 22-340): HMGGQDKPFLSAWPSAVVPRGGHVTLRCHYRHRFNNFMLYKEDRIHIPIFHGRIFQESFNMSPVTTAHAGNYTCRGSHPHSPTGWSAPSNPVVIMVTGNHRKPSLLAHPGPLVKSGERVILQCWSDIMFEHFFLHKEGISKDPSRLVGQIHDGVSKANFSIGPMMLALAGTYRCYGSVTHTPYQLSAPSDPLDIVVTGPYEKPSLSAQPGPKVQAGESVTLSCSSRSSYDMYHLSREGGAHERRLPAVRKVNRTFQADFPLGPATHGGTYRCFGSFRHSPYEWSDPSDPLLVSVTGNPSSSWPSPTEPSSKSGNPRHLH
KIR3DS1-Fc, sequence (Q14943 22-340): as the sequence (P43629 22-340) above, with I47V, S58G, V92M, K136R, G138W, P163S, L166R, P199L, P315L counted along it

Kd (KIR3DS1-Fc): 25 nM
koff (KIR3DS1-Fc): 0.0007 s⁻¹
kon (KIR3DS1-Fc): 28400 M⁻¹ s⁻¹
Kd (KIR3DL1-Fc): 157 nM
koff (KIR3DL1-Fc): 0.00691 s⁻¹
kon (KIR3DL1-Fc): 44000 M⁻¹ s⁻¹
Kd (KIR3DL2-Fc): 118 nM
koff (KIR3DL2-Fc): 0.00508 s⁻¹
kon (KIR3DL2-Fc): 43000 M⁻¹ s⁻¹
B1: HLA-F open conformer (natural protein)
MHC heavy: GSHSLRYFSTAVSRPGRGEPRYIAVEYVDDTQFLRFDSDAAIPRMEPREPWVEQEGPQYWEWTTGYAKANAQTDRVALRNLLRRYNQSEAGSHTLQGMNGCDMGPDGRLLRGYHQHAYDGKDYISLNEDLRSWTAADTVAQITQRFYEAEEYAEEFRTYLEGECLELLRRYLENGKETLQRADPPKAHVAHHPISDHEATLRCWALGFYPAEITLTWQRDGEEQTQDTELVETRPAGDGTFQKWAAVVVPPGEEQRYTCHVQHEGLPQPLILRWEQSPQPTIPI
modifications: biotin (biotinylated monomer, site not stated)
